Experimental findings from publication PMC3344845 (2012) are described below.

In this assay the target is chicken avidin (Gallus gallus (Chicken), UniProt P02701). Description: ITC. In general terms: In ITC the heat of successive injections is recorded.
Chain of chicken avidin (P02701 25-152): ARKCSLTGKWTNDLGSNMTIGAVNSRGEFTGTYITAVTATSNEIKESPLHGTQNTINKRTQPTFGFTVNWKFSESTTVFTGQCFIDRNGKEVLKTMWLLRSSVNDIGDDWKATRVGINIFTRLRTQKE

For the molecule SEKLSNTK (protein) [Brad-tag (synthetic peptide SEKLSNTK)], the binding result was “no binding”.
